# Source: paper PMC5655127
# Biological target: KpBest^ΔC11 L177T (Klebsiella pneumoniae)
# Test: crystal structure; KpBest^ΔC11 L177T, sitting-drop vapor diffusion at 20°C, 0.05 M zinc acetate, 6% ethylene glycol, 0.1 M sodium cacodylate pH 6.0, 6.6% PEG 8000; solved to 3.1 Å by molecular replacement with 4WD8
substance,measurement,value
KpBest^ΔC11 L177T (natural protein),stoichiometry N,5
